Patent publication US20250115654A1, “PHARMACEUTICAL COMPOSITION OF GLP-1 RECEPTOR AND GIP RECEPTOR DUAL AGONIST, AND USE THEREOF” (FUJIAN SHENGDI PHARMACEUTICAL CO., LTD., priority 2021, published 2025)
Numbered stars: 1 amine (or outer) side, 2 acyl side, 3 side chain; on linkers, the order of the positions; unused ones are H or OH. Square brackets hold non-standard residues; d marks the D form. Side chains are listed from the residue outwards. γGlu = O=C(O)[C@H](CCC(=O)[*:2])N[*:1]; AEEA = NCCOCCOCC(=O)O; Aib = CC(C)(N)C(=O)O

T1: human glucose-dependent insulinotropic polypeptide receptor (GIPR) (human, UniProt P48546)
T1 sequence: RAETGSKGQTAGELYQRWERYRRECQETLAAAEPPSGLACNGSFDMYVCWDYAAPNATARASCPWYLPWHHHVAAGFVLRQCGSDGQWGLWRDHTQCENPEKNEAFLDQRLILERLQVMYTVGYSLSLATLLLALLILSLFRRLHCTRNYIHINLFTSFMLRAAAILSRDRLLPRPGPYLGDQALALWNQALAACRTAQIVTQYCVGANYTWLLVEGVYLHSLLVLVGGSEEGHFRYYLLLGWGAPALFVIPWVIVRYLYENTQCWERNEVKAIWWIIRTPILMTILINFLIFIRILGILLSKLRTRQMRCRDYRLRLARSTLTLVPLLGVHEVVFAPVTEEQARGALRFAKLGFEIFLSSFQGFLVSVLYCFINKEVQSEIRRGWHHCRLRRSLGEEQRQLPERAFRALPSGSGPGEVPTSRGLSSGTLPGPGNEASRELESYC


target: human glucagon-like peptide-1 receptor (GLP-1R) (human, UniProt P43220); test: cell-based or functional assay

Going from H-Y[Aib]EGTFTSDYSIYK([AEEA-AEEA-γGlu-C20‑OH])EKIAAQEFINWLIAGGPSSGAPPPS-NH2 [compound 14# H-YAibEGTFTSDYSIYK(OEG-OEG-yGlu-C20-OH)EKIAAQEFINWLIAGGPSSGAPPPS-NH2] to H-Y[Aib]EGTFTSDYSIYK([AEEA-AEEA-γGlu-C20‑OH])EKIAAQEFINWLLAGGPSSGAPPPS-NH2 [compound 16# H-YAibEGTFTSDYSIYK(OEG-OEG-yGlu-C20-OH)EKIAAQEFINWLLAGGPSSGAPPPS-NH2], the “Activity against human GLP-1R (EC50 nM); cAMP, HTRF” value (shortened to “Activity against human GLP-1R”) rises from 0.013 nM to 0.029 nM (2.2-fold).

Going from H-Y[Aib]EGTFTSDYSIYK([AEEA-AEEA-γGlu-C20‑OH])EKIAAQEFVNWLLAGGPSSGAPPPS-NH2 [compound 18# H-YAibEGTFTSDYSIYK(OEG-OEG-yGlu-C20-OH)EKIAAQEFVNWLLAGGPSSGAPPPS-NH2] to H-Y[Aib]EGTFTSDYSIYLEK([AEEA-AEEA-γGlu-C20‑OH])IAAQEFVNWLIAGGPSSGAPPPS-NH2 [compound 9# H-YAibEGTFTSDYSIYLEK(OEG-OEG-yGlu-C20-OH)IAAQEFVNWLIAGGPSSGAPPPS-NH2], the “Activity against human GLP-1R” value rises from 0.013 nM to 0.049 nM (3.8-fold).

Compared with H-Y[Aib]EGTFTSDYSIYK([AEEA-AEEA-γGlu-C20‑OH])ERIAAQEFINWLIAGGPSSGAPPPS-NH2 [compound 15# H-YAibEGTFTSDYSIYK(OEG-OEG-yGlu-C20-OH)ERIAAQEFINWLIAGGPSSGAPPPS-NH2], H-Y[Aib]EGTFTSDYSIYLEK([AEEA-AEEA-γGlu-C20‑OH])IAAQEFINWLIAGGPSSGAPPPS-NH2 [compound 10# H-YAibEGTFTSDYSIYLEK(OEG-OEG-yGlu-C20-OH)IAAQEFINWLIAGGPSSGAPPPS-NH2] is 4.3-fold higher in “Activity against human GLP-1R” value: 0.015 nM for the first, 0.065 nM for the second.

H-Y[Aib]EGTFTSDYSIYK([AEEA-AEEA-γGlu-C20‑OH])ERIAAQEFVNWLIAGGPSSGAPPPS-NH2 [compound 13# H-YAibEGTFTSDYSIYK(OEG-OEG-yGlu-C20-OH)ERIAAQEFVNWLIAGGPSSGAPPPS-NH2] and H-Y[Aib]EGTFTSDYSIYK([AEEA-AEEA-γGlu-C20‑OH])ERIAAQEFVNWLLAGGPSSGAPPPS-NH2 [compound 17# H-YAibEGTFTSDYSIYK(OEG-OEG-yGlu-C20-OH)ERIAAQEFVNWLLAGGPSSGAPPPS-NH2] are within 1.5-fold of each other in “Activity against human GLP-1R” value: 0.017 nM for the first, 0.022 nM for the second.

H-Y[Aib]EGTFTSDYSIYK([AEEA-AEEA-γGlu-C20‑OH])EKIAAQEFVNWLIAGGPSSGAPPPS-NH2 [compound 12# H-YAibEGTFTSDYSIYK(OEG-OEG-yGlu-C20-OH)EKIAAQEFVNWLIAGGPSSGAPPPS-NH2] was tested, and the “Activity against human GLP-1R” value was 0.03 nM.

target: T1, human glucose-dependent insulinotropic …; test: cell-based or functional assay

H-Y[Aib]EGTFTSDYSIYK([AEEA-AEEA-γGlu-C20‑OH])EKIAAQEFINWLIAGGPSSGAPPPS-NH2 [compound 14# H-YAibEGTFTSDYSIYK(OEG-OEG-yGlu-C20-OH)EKIAAQEFINWLIAGGPSSGAPPPS-NH2] and H-Y[Aib]EGTFTSDYSIYK([AEEA-AEEA-γGlu-C20‑OH])EKIAAQEFINWLLAGGPSSGAPPPS-NH2 [compound 16# H-YAibEGTFTSDYSIYK(OEG-OEG-yGlu-C20-OH)EKIAAQEFINWLLAGGPSSGAPPPS-NH2] are within 1.5-fold of each other in “Activity against human GIPR (EC50 nM); cAMP, HTRF” value (“Activity against human GIPR” for short): 0.13 nM for the first, 0.095 nM for the second.

Going from H-Y[Aib]EGTFTSDYSIYK([AEEA-AEEA-γGlu-C20‑OH])EKIAAQEFVNWLLAGGPSSGAPPPS-NH2 [compound 18# H-YAibEGTFTSDYSIYK(OEG-OEG-yGlu-C20-OH)EKIAAQEFVNWLLAGGPSSGAPPPS-NH2] to H-Y[Aib]EGTFTSDYSIYLEK([AEEA-AEEA-γGlu-C20‑OH])IAAQEFVNWLIAGGPSSGAPPPS-NH2 [compound 9# H-YAibEGTFTSDYSIYLEK(OEG-OEG-yGlu-C20-OH)IAAQEFVNWLIAGGPSSGAPPPS-NH2], the “Activity against human GIPR” value falls from 0.06 nM to 0.04 nM (1.5-fold).

Compared with H-Y[Aib]EGTFTSDYSIYK([AEEA-AEEA-γGlu-C20‑OH])ERIAAQEFINWLIAGGPSSGAPPPS-NH2 [compound 15# H-YAibEGTFTSDYSIYK(OEG-OEG-yGlu-C20-OH)ERIAAQEFINWLIAGGPSSGAPPPS-NH2], H-Y[Aib]EGTFTSDYSIYLEK([AEEA-AEEA-γGlu-C20‑OH])IAAQEFINWLIAGGPSSGAPPPS-NH2 [compound 10# H-YAibEGTFTSDYSIYLEK(OEG-OEG-yGlu-C20-OH)IAAQEFINWLIAGGPSSGAPPPS-NH2] is 4.1-fold lower in “Activity against human GIPR” value: 0.23 nM for the first, 0.056 nM for the second.

H-Y[Aib]EGTFTSDYSIYK([AEEA-AEEA-γGlu-C20‑OH])ERIAAQEFVNWLIAGGPSSGAPPPS-NH2 [compound 13# H-YAibEGTFTSDYSIYK(OEG-OEG-yGlu-C20-OH)ERIAAQEFVNWLIAGGPSSGAPPPS-NH2] and H-Y[Aib]EGTFTSDYSIYK([AEEA-AEEA-γGlu-C20‑OH])ERIAAQEFVNWLLAGGPSSGAPPPS-NH2 [compound 17# H-YAibEGTFTSDYSIYK(OEG-OEG-yGlu-C20-OH)ERIAAQEFVNWLLAGGPSSGAPPPS-NH2] are within 1.5-fold of each other in “Activity against human GIPR” value: 0.13 nM for the first, 0.11 nM for the second.

In the case of H-Y[Aib]EGTFTSDYSIYK([AEEA-AEEA-γGlu-C20‑OH])EKIAAQEFVNWLIAGGPSSGAPPPS-NH2 [compound 12# H-YAibEGTFTSDYSIYK(OEG-OEG-yGlu-C20-OH)EKIAAQEFVNWLIAGGPSSGAPPPS-NH2], the “Activity against human GIPR” value is reported as 0.17 nM.
